# Data from US20230212549A1 (3B PHARMACEUTICALS, published 2023).
# Numbered stars: 1 amine (or outer) side, 2 acyl side, 3 side chain; on linkers, the order of the positions; unused ones are H or OH. Bridge positions count the residues as written; N and C are the ends. Square brackets hold non-standard residues; d marks the D form. Primed or numbered codes have the meaning given here. * marks the point of attachment. tMeBn(DOTA-PP) = 1,3,5-trimethylbenzylidene, two thioethers to Cys, third CH2 bound to one N of piperazine whose other N bears DOTA, O=C(O)CN1CCN(CC(=O)O)CCN(CC(=O)N2CCN(Cc3cc(C[*:1])cc(C[*:2])c3)CC2)CCN(CC(=O)O)CC1; TBMB(SCH2CH2NH-DOTA) = O=C(O)CN1CCN(CC(=O)O)CCN(CC(=O)NCCSCc2cc(C[*:1])cc(C[*:2])c2)CCN(CC(=O)O)CC1; Ttds(6) = 1,13-Diamino-4,7,10-trioxatridecan-succinamic acid, O=C(CCC(=O)[*:2])NCCCOCCOCCOCCCN[*:1]; Ttds = 1,13-diamino-4,7,10-trioxatridecan-succinamic acid, O=C(CCC(=O)[*:2])NCCCOCCOCCOCCCN[*:1]; 3MeBn = 3-Methylbenzylidene (m-xylylene thioether bridge from α,α′-dibromo-m-xylene); Ttds(4) = spacer between chelator and peptide, O=C(CCC(=O)[*:2])NCCCOCCOCCOCCCN[*:1]; N4Ac = 6-Carboxy-1,4,8,11-tetraazaundecane, an N4-chelator, NCCNCC(CNCCN)C(=O)*; DOTA = O=C(O)CN1CCN(CC(=O)O)CCN(CC(=O)*)CCN(CC(=O)O)CC1; DTPA = O=C(O)CN(CCN(CC(=O)O)CC(=O)O)CCN(CC(=O)O)CC(=O)*; 3Lut = 3,5-lutidylidene (derived from 3,5-lutidine); nBu‑CAyl = n-butylaminocarbonyl, CCCCNC(=O)*; mXylylene = c1cc(C[*:1])cc(C[*:2])c1; PPAc = 4-Carboxymethyl piperazine; Nle = CCCC[C@H](N)C(=O)O; PEG6′ = not defined here; Hexanoyl = CCCCCC(=O)*; βAla = NCCC(=O)O; Sar = CNCC(=O)O
# T1: recombinant human PREP (R&D systems, #4308-SE) (human, UniProt P48147 1-710)
# T1 sequence: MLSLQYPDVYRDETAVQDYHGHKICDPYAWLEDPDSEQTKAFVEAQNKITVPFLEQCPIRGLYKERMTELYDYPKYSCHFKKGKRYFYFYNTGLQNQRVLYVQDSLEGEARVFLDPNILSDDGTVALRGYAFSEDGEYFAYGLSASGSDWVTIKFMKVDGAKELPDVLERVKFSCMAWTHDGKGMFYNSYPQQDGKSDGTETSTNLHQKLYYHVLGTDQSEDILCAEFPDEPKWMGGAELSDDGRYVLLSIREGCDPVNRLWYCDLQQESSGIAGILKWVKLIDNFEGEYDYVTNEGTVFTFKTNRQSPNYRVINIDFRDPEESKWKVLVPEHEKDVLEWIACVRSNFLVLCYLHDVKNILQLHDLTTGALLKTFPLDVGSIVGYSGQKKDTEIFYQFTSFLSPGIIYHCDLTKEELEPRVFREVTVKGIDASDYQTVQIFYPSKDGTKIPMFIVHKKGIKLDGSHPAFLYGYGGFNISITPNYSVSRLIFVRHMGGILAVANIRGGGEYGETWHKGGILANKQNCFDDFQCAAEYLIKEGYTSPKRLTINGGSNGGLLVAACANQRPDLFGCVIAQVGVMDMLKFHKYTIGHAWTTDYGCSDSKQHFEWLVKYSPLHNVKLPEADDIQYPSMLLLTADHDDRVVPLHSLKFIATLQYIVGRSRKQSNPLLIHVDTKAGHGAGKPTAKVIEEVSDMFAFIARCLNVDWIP
# Assays:
# [1] = biological target: T2, human fibroblast activating protein (FAP) on WI-38 fibroblasts (human, UniProt Q12884 1-760); experiment: competitive FACS on WI-38 cells vs 3 nM Cy5-labeled peptide; pIC50 category C = 6.1-7.0
# T2 construct: FAP-expressing human WI-38 fibroblasts (ECACC)
# [2] = biological target: T3, Human recombinant FAP captured on anti-FAP antibody (SPR) (human, UniProt Q12884 26-760); experiment: SPR (Biacore), rhFAP captured by anti-FAP antibody; pKD category B = 7.1-8.0
# T3 construct: whole entry of human FAP named; also called rhFAP
# [3] = biological target: T2, human fibroblast activating protein …; experiment: competitive FACS on WI-38 cells vs 3 nM Cy5-labeled peptide; pIC50 category B = 7.1-8.0
# [4] = biological target: T4, human fibroblast activation protein (FAP) on WI-38 fibroblasts (human, UniProt Q12884 1-760); experiment: competitive FACS, WI-38 cells, Cy5-labeled peptide as competitor; C = pIC50 6.1 to 7.0
# T4 construct: FAP-expressing human WI-38 fibroblasts (ECACC)
# [5] = biological target: T2, human fibroblast activating protein …; experiment: competitive FACS on WI-38 cells vs 3 nM Cy5-labeled peptide; pIC50 category A = >8.0
# [6] = biological target: T3, Human recombinant FAP captured on …; experiment: SPR (Biacore), rhFAP captured by anti-FAP antibody; pKD category A = >8.0
# [7] = biological target: T1, recombinant human PREP (R&D systems, …); experiment: cell-based or functional assay
# [8] = biological target: Recombinant human DPP4 (R&D systems, #9168-SE) (human, UniProt P27487 29-766); experiment: cell-based or functional assay
# Sequence of Recombinant human DPP4 (R&D systems, #9168-SE) (P27487 29-766 limits assumed): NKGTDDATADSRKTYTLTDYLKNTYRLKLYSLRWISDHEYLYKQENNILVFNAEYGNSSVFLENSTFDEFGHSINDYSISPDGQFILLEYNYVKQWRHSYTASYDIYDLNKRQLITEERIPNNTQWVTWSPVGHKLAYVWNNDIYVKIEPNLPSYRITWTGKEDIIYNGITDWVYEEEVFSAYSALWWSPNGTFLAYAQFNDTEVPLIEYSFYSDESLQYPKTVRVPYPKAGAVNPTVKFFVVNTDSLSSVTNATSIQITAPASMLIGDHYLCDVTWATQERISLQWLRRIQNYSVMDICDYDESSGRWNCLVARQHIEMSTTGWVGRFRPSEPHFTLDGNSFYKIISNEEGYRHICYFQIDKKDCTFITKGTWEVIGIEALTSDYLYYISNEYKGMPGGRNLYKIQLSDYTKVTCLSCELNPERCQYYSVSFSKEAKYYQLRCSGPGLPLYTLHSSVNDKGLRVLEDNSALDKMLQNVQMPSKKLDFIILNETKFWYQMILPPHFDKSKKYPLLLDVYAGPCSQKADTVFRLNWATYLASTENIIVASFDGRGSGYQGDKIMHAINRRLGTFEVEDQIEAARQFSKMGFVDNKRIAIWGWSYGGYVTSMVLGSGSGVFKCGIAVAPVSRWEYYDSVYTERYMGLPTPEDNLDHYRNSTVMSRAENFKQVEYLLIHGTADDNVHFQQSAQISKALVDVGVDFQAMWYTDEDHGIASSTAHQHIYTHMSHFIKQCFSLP
# [9] = biological target: T5, Recombinant human FAP (R&D systems, #3715-SE) (human, UniProt Q12884 26-760); experiment: SPR (Biacore T200), FAP captured on anti-FAP antibody, single cycle kinetics; B = pKD 7.1 to 8.0
# T5 construct: bought; in SPR captured on immobilized anti-FAP antibody MAB3715; also called rhFAP; human recombinant FAP
# [10] = biological target: T5, Recombinant human FAP (R&D systems, …); experiment: cell-based or functional assay
binder,measurement,setting,value
"{N4Ac-PEG6′-βAla}-[Nle]CPPTEFC-OH (linker 2-8 via 3MeBn, also called 3BP-4779) [N4Ac-PEG6-Bal-Nle-[C(3MeBn)-PPTEFC]-OH]",pIC50,[1],6.1 to 7 pic50
"{N4Ac-PEG6′}-[Nle]CPPTEFC-OH (linker 2-8 via 3Lut, also called 3BP-4773) [N4Ac-PEG6-Nle-[C(3Lut)-PPTEFC]-OH]",pKD,[2],7.1 to 8 pkd
same,pIC50,[3],7.1 to 8 pic50
"{N4Ac-PPAc-Ttds(4)}-[Nle]CPPTEFC-OH (linker 2-8 via 3Lut, also called 3BP-4775) [N4Ac-PPAc-Ttds-Nle-[C(3Lut)-PPTEFC]-OH]",pKD,[2],7.1 to 8 pkd
same,pIC50,[3],7.1 to 8 pic50
"Hexanoyl-CPPAQFCD-NH2 (linker 1-7 via tMeBn(DOTA-PP); SMILES CCCCCC(=O)N[C@H]1CSCc2cc(cc(CN3CCN(C(=O)CN4CCN(CC(=O)O)CCN(CC(=O)O)CCN(CC(=O)O)CC4)CC3)c2)CSC[C@@H](C(=O)N[C@@H](CC(=O)O)C(N)=O)NC(=O)[C@H](Cc2ccccc2)NC(=O)[C@H](CCC(N)=O)NC(=O)[C@H](C)NC(=O)[C@@H]2CCCN2C(=O)[C@@H]2CCCN2C1=O, also called 3BP-3745) [Hex-[Cys(tMeBn(DOTA-PP))-Pro-Pro-Ala-Gln-Phe-Cys]-Asp-NH2]",pIC50,[4],6.1 to 7 pic50
"Hexanoyl-CPPTAFCD-NH2 (linker 1-7 via tMeBn(DOTA-PP); SMILES CCCCCC(=O)N[C@H]1CSCc2cc(cc(CN3CCN(C(=O)CN4CCN(CC(=O)O)CCN(CC(=O)O)CCN(CC(=O)O)CC4)CC3)c2)CSC[C@@H](C(=O)N[C@@H](CC(=O)O)C(N)=O)NC(=O)[C@H](Cc2ccccc2)NC(=O)[C@H](C)NC(=O)[C@H]([C@@H](C)O)NC(=O)[C@@H]2CCCN2C(=O)[C@@H]2CCCN2C1=O, also called 3BP-3739) [Hex-[Cys(tMeBn(DOTA-PP))-Pro-Pro-Thr-Ala-Phe-Cys]-Asp-NH2]",pIC50,[4],6.1 to 7 pic50
"{N4Ac-PPAc-Ttds(4)}-[Nle]CPPTEFC[βAla]-OH (linker 2-8 via 3MeBn, also called 3BP-4784) [N4Ac-PPAc-Ttds-Nle-[C(3MeBn)-PPTEFC]-Bal-OH]",pIC50,[5],> 8 pic50
same,pKD,[6],> 8 pkd
"{nBu‑CAyl}-C[Sar]PTQFC-NH2 (linker 1-7 via TBMB(SCH2CH2NH-DOTA); SMILES CCCCNC(=O)N[C@H]1CSCc2cc(CSCCNC(=O)CN3CCN(CC(=O)O)CCN(CC(=O)O)CCN(CC(=O)O)CC3)cc(c2)CSC[C@@H](C(N)=O)NC(=O)[C@H](Cc2ccccc2)NC(=O)[C@H](CCC(N)=O)NC(=O)[C@H]([C@@H](C)O)NC(=O)[C@@H]2CCCN2C(=O)CN(C)C1=O, also called 3BP-4621) [nBu-CAyl-[Cys(tMeBn(DOTA-AET))-Nmg-Pro-Thr-Gln-Phe-Cys]-NH2]",pKD,[6],> 8 pkd
"{nBu‑CAyl}-C[Sar]PTQFC-OH (linker 1-7 via TBMB(SCH2CH2NH-DOTA); SMILES CCCCNC(=O)N[C@H]1CSCc2cc(CSCCNC(=O)CN3CCN(CC(=O)O)CCN(CC(=O)O)CCN(CC(=O)O)CC3)cc(c2)CSC[C@@H](C(=O)O)NC(=O)[C@H](Cc2ccccc2)NC(=O)[C@H](CCC(N)=O)NC(=O)[C@H]([C@@H](C)O)NC(=O)[C@@H]2CCCN2C(=O)CN(C)C1=O, also called 3BP-4607) [nBu-CAyl-[Cys(tMeBn(DOTA-AET))-Nmg-Pro-Thr-Gln-Phe-Cys]-OH]",pKD,[6],> 8 pkd
"{DTPA}-[Ttds][Nle]CPPTEFC-OH (linker 3-9 via mXylylene; SMILES CCCC[C@H](NC(=O)CCC(=O)NCCCOCCOCCOCCCNC(=O)CN(CCN(CCN(CC(=O)O)CC(=O)O)CC(=O)O)CC(=O)O)C(=O)N[C@H]1CSCc2cccc(c2)CSC[C@@H](C(=O)O)NC(=O)[C@H](Cc2ccccc2)NC(=O)[C@H](CCC(=O)O)NC(=O)[C@H]([C@@H](C)O)NC(=O)[C@@H]2CCCN2C(=O)[C@@H]2CCCN2C1=O, also called 3BP-4229) [DTPA-Ttds-Nle-[Cys-(3MeBn)-Pro-Pro-Thr-Glu-Phe-Cys]-OH]",pIC50,[4],6.1 to 7 pic50
"{nBu‑CAyl}-CPPTEFC-OH (linker 1-7 via tMeBn(NOPO-AET), also called 3BP-4778) [nBu-CAyl-[C(tMeBn(NOPO-AET))-PPTEFC]-OH]",pIC50,[5],> 8 pic50
same,pKD,[6],> 8 pkd
"CPPTEFC (N-term nBu-CAyl-; Cys1 and Cys7 thioether-bridged by tMeBn(NODAGA-AET); C-term -OH, also called 3BP-4724) [nBu-CAyl-[C(tMeBn(NODAGA-AET))-PPTEFC]-OH]",pIC50,[5],> 8 pic50
"{N4Ac-PPAc-Ttds(4)}-[Nle]CPPTEFCD-OH (linker 2-8 via 3MeBn, also called 3BP-4785) [N4Ac-PPAc-Ttds-Nle-[C(3MeBn)-PPTEFC]D-OH]",pIC50,[5],> 8 pic50
"Hexanoyl-CPQFPTCD-NH2 (linker 1-7 via tMeBn(DOTA-PP); SMILES CCCCCC(=O)N[C@H]1CSCc2cc(cc(CN3CCN(C(=O)CN4CCN(CC(=O)O)CCN(CC(=O)O)CCN(CC(=O)O)CC4)CC3)c2)CSC[C@@H](C(=O)N[C@@H](CC(=O)O)C(N)=O)NC(=O)[C@H]([C@@H](C)O)NC(=O)[C@@H]2CCCN2C(=O)[C@H](Cc2ccccc2)NC(=O)[C@H](CCC(N)=O)NC(=O)[C@@H]2CCCN2C1=O, also called 3BP-3857) [Hex-[Cys(tMeBn(DOTA-PP))-Pro-Gln-Phe-Pro-Thr-Cys]-Asp-NH2]",pIC50,[4],6.1 to 7 pic50
"{DOTA}-[Ttds][Nle]CPPTEFC-NH2 (linker 3-9 via mXylylene; SMILES CCCC[C@H](NC(=O)CCC(=O)NCCCOCCOCCOCCCNC(=O)CN1CCN(CC(=O)O)CCN(CC(=O)O)CCN(CC(=O)O)CC1)C(=O)N[C@H]1CSCc2cccc(c2)CSC[C@@H](C(N)=O)NC(=O)[C@H](Cc2ccccc2)NC(=O)[C@H](CCC(=O)O)NC(=O)[C@H]([C@@H](C)O)NC(=O)[C@@H]2CCCN2C(=O)[C@@H]2CCCN2C1=O, also called 3BP-3319) [DOTA-Ttds-Nle-[Cys(3MeBn)-Pro-Pro-Thr-Glu-Phe-Cys]-NH2]",pIC50 (PREP),[7],6.2 pIC50
same,pIC50 (DPP4),[8],< 6 pIC50
same,pKD,[9],7.1 to 8 pkd
"N4Ac-[Ttds(6)]ECPPTEFC-OH (linker 3-9 via 3MeBn, also called 3BP-4233) [N4Ac-Ttds-Glu-[Cys-(3MeBn)-Pro-Pro-Thr-Glu-Phe-Cys]-OH]",pIC50 Category (Activity),[10],≤ 6 pIC50
same,pIC50,[4],6.1 to 7 pic50
